Values of other authors as cited in paper PMC3518592.
pKd: −log10 of the molar value.

Molecular target: ubiquitin (UniProt P0CG48)

Sequence of Vps9 CUE (P54787 405-451): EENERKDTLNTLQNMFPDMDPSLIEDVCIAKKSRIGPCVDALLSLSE

pKd: 4.70
Substance: Vps9 CUE (from UniProt P54787)
